Ends that are not written are not given here.

Data set [1] has as its target T1, human DPEP2 (human, UniProt Q9H4A9 33-463).
T1 construct: whole, on cells; Transiently expressed on Cos-1 cells
The data set can be described thus: immunofluorescence microscopy of Alexa-488 peptide on transfected Cos-1 cells. On the procedure:
(§1) Cos-1 cells were transiently transfected with either 3 μg of human DPEP-1, DPEP2, or DPEP3 gene using lipofectamine 2000 (Invitrogen) reagent in OptiMEM medium. 24 hours after transfection, DPEP-1, DPEP2, or DPEP3 expressing cells were re-seeded on collagen coated (neutralized) wells in 24 well plates and allowed to grow for 24 hours at 37° C. 24 hours after seeding, media was removed and cells were washed with PBS. Cells were blocked with FBS/NBSA/Tween in PBS for 30 minutes on ice. Cells were then washed with PBS and incubated with LSALT or GFE-1, conjugated with Alexa-488 (green). After incubation, cells were washed with PBS and stained with DAPI for 5 minutes on ice. Cells were then washed with PBS and fixed using 4% paraformaldehyde and immunofluorescence microscopy was performed to assess binding. Representative photomicrographs are shown for each experimental condition (n=3) in FIG. 6A. Proteins from DPEP-1, DPEP2 and DPEP3 transfected cells were isolated after 48 hours using octyl-glucoside/RIPA lysis buffer and western blot analysis was performed to assess DPEP-1, DPEP2 and DPEP3 protein expression using specific antibodies; DPEP-1 antibody (Sigma), DPEP2 (Abcam) and DPEP3 (Santacruz). Blots were stripped and reprobed with an anti-β-actin.

For data set [2], the target named is T2, human DPEP3 (human, UniProt Q9H4B8 36-463).
T2 construct: whole, on cells; Transiently expressed on Cos-1 cells
T2 sequence (looked up): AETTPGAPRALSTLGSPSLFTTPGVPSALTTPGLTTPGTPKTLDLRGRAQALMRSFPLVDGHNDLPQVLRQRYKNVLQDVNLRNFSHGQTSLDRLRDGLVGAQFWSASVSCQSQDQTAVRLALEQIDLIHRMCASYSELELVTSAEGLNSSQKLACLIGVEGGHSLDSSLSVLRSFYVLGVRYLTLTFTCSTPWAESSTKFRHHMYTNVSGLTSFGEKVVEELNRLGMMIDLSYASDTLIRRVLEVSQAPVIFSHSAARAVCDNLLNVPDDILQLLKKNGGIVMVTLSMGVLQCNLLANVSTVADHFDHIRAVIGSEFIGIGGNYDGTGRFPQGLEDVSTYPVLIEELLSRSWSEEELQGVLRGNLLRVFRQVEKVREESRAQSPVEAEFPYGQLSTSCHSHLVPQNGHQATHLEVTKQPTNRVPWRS
The data set is described as above. On the procedure: as §1

For data set [3], the target named is T3, rat membrane dipeptidase (DPEP-1) (rat, UniProt P31430 17-384).
T3 construct: whole, on cells; Transiently expressed on Cos-1 or Cos-7 cells; also called renal rat membrane dipeptidase; rat DPEP-1
T3 sequence (P31430 17-384): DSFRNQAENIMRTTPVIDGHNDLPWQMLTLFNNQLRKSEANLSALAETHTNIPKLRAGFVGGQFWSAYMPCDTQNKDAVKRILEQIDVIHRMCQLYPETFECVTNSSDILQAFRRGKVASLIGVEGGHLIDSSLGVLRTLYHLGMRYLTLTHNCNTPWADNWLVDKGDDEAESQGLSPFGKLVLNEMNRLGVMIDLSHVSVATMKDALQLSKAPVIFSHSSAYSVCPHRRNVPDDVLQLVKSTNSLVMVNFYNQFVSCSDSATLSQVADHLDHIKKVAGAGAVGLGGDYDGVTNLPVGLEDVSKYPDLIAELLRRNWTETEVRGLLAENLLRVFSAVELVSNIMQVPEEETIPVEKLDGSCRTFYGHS
The data set can be described thus: immunofluorescence microscopy of Alexa-568 peptide on Cos-7 cells transfected with rat DPEP-1. On the procedure: Cos-7 cells were transiently transfected with 5 μg of renal rat membrane dipeptidase (DPEP-1) plasmid using lipofectamine 2000 (Invitrogen) reagent. 48 hours after transfection, media was removed and cells were washed with PBS. Cells were incubated with LSALT conjugated with Alexa-488 (Green), GFE-1 peptide conjugated with Alexa-568 (Red) or control peptide conjugated with Alexa-488 (Green) on ice for 30 minutes. Cells were washed and fixed using 4% paraformaldehyde and immunofluorescence microscopy was performed to assess binding. Shown are representative photomicrographs of each experimental condition (n=2).

Data set [4] has as its target T3, rat membrane dipeptidase (DPEP-1). The data set is described as follows: immunofluorescence microscopy of Alexa-488 peptide on Cos-1 cells transfected with rat DPEP-1. On the procedure:
Cos-1 cells were transiently transfected with either 3 or 5 μg of membrane dipeptidase (DPEP-1) cDNA corresponding to the rat (Shown in FIG. 5A) or human DPEP-1 (Shown in FIG. 5B) gene using lipofectamine 2000 (Invitrogen) reagent in OptiMEM medium. 24 hours after transfection, DPEP-1 expressing cells were re-seeded on collagen coated (neutralized) wells in 24 well plates and allowed to grow for 24 hours at 37° C. 24 hours after seeding, media was removed and cells were washed with PBS. Cells were blocked with FBS/NBSA/Tween in PBS for 30 minutes on ice. Cells were then washed with PBS and incubated with Alexa-488 (green) conjugated LSALT, GFE-1, control peptide or DPEP-1 antibody ( 1/100) (Sigma) on ice for 30 minutes. […] After incubation, cells were washed with PBS and treated with 10 mg/ml biotin transfer peptide (LSALT, GFE-1 or Control Peptide (KGAL)] for 10 minutes. Cells were then washed with PBS and biotin transfer was enabled by UV activation of the aryl azide groups for 15 minutes at 363 nm. Residual fluid was removed and monolayers were lysed either with octyl-glucoside/RIPA or 8M urea. Isolated supernatants were rotated with 50 μl of neutr-avidin agarose beads at 4° C. for 24 hours. Beads were washed with corresponding buffers, boiled in Laemmli buffer and analyzed by western blot using a DPEP-1 specific antibody (Proteintech).

The target in data set [5] is T4, human membrane dipeptidase (DPEP-1) (human, UniProt P16444 17-385).
T4 construct: whole, on cells; The background section describes DPEP-1 as a disulfide-linked homodimer; also called renal dipeptidase; dehydropeptidase-1
T4 sequence (looked up): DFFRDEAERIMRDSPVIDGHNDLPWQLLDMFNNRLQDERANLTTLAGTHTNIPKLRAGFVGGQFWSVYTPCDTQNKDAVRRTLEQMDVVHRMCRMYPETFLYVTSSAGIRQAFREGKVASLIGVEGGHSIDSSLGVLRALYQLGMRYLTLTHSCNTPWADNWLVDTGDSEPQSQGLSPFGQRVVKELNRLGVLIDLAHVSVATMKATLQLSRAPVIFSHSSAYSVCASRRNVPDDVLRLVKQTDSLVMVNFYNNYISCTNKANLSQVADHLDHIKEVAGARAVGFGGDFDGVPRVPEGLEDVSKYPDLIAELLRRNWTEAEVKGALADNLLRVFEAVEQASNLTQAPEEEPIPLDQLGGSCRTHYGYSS
The data set can be described thus: immunofluorescence microscopy of Alexa-488 peptide on Cos-1 cells transfected with human DPEP-1.

Data set [6] has as its target T5, LSALT peptide (LSALTPSPSWLKYKAL).
T5 chain: LSALTPSPSWLKYKAL

T1 sequence (Q9H4A9 33-463): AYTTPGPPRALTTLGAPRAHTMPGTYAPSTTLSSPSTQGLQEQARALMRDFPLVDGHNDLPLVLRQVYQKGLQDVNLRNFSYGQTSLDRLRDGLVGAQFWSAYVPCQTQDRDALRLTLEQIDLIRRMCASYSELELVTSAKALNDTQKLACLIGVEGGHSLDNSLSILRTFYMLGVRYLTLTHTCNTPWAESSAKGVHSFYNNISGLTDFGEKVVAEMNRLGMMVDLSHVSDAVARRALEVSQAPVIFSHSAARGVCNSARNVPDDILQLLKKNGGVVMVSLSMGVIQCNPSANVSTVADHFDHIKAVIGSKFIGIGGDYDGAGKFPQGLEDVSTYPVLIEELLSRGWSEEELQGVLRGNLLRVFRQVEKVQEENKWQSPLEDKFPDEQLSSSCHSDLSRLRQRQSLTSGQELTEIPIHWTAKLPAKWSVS

B1: GFE-1 peptide (CGFECVRQCPERC) (peptide)
peptide: CGFECVRQCPERC
modifications: cysteine pairing not given here; also: conjugated with Alexa-488 or Alexa-568, attachment site not given here
As for B1, the binding result in data set [1] was “no binding”; in data set [2] it was “no binding”; in data set [3], “binds”.

B2: LSALT peptide (LSALTPSPSWLKYKAL) (peptide)
peptide: LSALTPSPSWLKYKAL
modifications: also: Alexa-488 conjugate in binding assays, site not given here
notes: Phage-display derived peptide; also called Metablok
On to B2, for which the binding result in data set [1] is given as “no binding”; in data set [2], “no binding”; in data set [4] it was “binds”; in data set [5], “binds”.

B3: human membrane dipeptidase (DPEP-1) (protein)
chain: T4 sequence (looked up)
As for B3, the “membrane dipeptidase (DPEP-1) enzyme activity (Gly-D-Phe substrate, fluorimetric detection of D-Phe)” value in data set [6] is “LSALT does not Inhibit Membrane Dipeptidase (DPEP-1) Enzyme Activity”.

The record behind these values is US20200078442A1 (ARCH BIOPARTNERS, published 2020).
